{"source": "paper doi:10.1101/2020.02.09.940833", "key": {"SAR1A (human)": {"molecular_target": "SAR1A (human) (UniProt Q9NR31)", "sequence (Q9NR31 whole entry)": "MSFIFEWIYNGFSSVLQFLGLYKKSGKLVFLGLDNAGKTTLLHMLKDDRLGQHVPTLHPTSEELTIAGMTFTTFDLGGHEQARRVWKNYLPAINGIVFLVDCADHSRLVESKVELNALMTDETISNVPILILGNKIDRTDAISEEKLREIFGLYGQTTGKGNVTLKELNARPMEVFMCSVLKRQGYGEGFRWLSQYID", "test": "liposome flotation"}, "SAR1B>A-helix (human)": {"molecular_target": "SAR1B>A-helix (human) (UniProt Q9Y6B6)", "test": "liposome flotation"}}}
{"substance": "GTPase activating fragment of SEC31A (from UniProt O94979 1-1220) (domain or fragment)", "values": [{"measurement": "fold recruitment relative to SAR1B", "setting": "SAR1A (human)", "result": 2, "unit": "fold"}]}
{"substance": "SEC23A (from UniProt Q15436 1-765) (natural protein)", "values": [{"measurement": "fold reduction of binding (reference as read: SAR1A>B-helix)", "setting": "SAR1B>A-helix (human)", "result": 2, "unit": "fold"}]}
